In PMC2734569, “Functional mapping of the fission yeast DNA polymerase δ B-subunit Cdc1 by site-directed and random pentapeptide insertion mutagenesis” (BMC Molecular Biology, 2009):

Experiments:
Experiment in all cases: two-hybrid; LexA-Cdc1 bait (pBTM116 or pBTM116BN) with Gal4-Pol3 prey and co-expressed c-myc-tagged Cdc27 (pAA-Cdc27) in S. cerevisiae CTY10-5d; ONPG liquid culture beta-galactosidase assay, mean of triplicates, as percent of wild-type Cdc1
Details in all cases: partners not purified
[1] = target: T1, Cdc1 (fission yeast DNA polymerase delta B-subunit), wild type (Schizosaccharomyces pombe, UniProt P87324 1-462)
T1 construct: DNA polymerase delta B-subunit Cdc1, S. pombe; cdc1+ cDNA on a 1.5 kb BamHI fragment from pBTM116-Cdc1, ORF 1386 bp; also called WT; LexA-Cdc1; source: yeast two-hybrid fusion, in S. cerevisiae CTY10-5d
T1 sequence (looked up): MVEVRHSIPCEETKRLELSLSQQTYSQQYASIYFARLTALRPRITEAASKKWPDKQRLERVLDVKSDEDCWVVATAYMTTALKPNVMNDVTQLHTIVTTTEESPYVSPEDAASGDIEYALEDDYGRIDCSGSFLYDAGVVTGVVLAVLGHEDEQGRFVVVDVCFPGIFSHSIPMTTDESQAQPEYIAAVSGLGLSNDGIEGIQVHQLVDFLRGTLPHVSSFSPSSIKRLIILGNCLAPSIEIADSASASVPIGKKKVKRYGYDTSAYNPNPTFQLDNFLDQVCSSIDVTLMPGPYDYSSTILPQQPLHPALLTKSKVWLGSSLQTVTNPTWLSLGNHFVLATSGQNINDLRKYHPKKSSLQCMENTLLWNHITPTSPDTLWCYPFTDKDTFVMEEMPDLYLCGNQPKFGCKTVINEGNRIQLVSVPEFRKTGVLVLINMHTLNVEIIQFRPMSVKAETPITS

Cdc1-E1 = target: T2, Cdc1-E1 (Schizosaccharomyces pombe, UniProt P87324 1-462, Ser-GlyValProGlnSer-Asp)
T2 construct: Cdc1, S. pombe, with a pentapeptide inserted after residue 66; source: yeast two-hybrid fusion, in S. cerevisiae CTY10-5d
T2 sequence (looked up): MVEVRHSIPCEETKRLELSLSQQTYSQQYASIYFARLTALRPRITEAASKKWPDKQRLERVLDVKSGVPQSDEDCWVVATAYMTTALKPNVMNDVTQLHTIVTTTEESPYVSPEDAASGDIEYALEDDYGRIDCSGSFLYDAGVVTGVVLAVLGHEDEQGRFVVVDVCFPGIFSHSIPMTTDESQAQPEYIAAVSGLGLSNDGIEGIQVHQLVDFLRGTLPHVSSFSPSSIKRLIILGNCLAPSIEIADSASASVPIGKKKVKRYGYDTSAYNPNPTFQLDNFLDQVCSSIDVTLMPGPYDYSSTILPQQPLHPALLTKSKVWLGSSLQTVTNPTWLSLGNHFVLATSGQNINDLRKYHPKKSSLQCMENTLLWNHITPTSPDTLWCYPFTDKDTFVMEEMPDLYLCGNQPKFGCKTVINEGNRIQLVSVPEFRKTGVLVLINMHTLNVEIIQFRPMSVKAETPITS

Cdc1-J10 = target: T3, Cdc1-J10 (Schizosaccharomyces pombe, UniProt P87324 1-462, Tyr-ArgGlyThrProTyr-Met)
T3 construct: Cdc1, S. pombe, with a pentapeptide inserted after residue 77; also called J11; E6; source: yeast two-hybrid fusion, in S. cerevisiae CTY10-5d
T3 sequence (looked up): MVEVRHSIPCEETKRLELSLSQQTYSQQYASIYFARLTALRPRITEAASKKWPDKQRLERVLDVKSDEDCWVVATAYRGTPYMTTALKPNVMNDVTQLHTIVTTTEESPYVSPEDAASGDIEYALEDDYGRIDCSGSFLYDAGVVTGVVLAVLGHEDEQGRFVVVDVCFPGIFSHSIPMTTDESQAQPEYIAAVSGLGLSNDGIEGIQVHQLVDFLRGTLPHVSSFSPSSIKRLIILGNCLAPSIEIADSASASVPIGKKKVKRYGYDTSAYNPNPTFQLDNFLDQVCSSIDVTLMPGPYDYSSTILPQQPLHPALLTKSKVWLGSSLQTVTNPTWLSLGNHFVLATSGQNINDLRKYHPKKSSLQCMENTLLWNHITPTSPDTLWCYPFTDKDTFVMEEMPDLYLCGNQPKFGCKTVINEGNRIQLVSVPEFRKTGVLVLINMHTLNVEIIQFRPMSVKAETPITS

Cdc1-A9 = target: T4, Cdc1-A9 (Schizosaccharomyces pombe, UniProt P87324 1-462, Pro292Ala | Gly293Ala)
T4 construct: Cdc1, S. pombe, double point mutant (A1 and A2 combined); source: yeast two-hybrid fusion, in S. cerevisiae CTY10-5d
T4 sequence (looked up): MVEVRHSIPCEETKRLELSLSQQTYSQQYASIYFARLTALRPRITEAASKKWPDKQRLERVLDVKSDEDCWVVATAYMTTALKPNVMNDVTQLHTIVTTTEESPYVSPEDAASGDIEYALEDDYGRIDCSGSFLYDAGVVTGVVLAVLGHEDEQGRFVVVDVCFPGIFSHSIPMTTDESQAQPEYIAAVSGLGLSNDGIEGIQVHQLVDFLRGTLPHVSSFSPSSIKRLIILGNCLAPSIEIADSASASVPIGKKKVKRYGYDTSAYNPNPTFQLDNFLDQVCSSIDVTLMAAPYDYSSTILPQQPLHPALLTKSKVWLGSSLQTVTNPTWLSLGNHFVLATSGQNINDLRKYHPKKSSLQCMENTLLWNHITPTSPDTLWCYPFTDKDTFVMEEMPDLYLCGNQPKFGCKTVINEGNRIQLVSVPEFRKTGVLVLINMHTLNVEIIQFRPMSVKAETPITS

two-hybrid beta-galactosidase activity, % of wild-type Cdc1 [1]: 100% | two-hybrid beta-galactosidase activity, % of wild-type Cdc1 (Cdc1-E1): 65% | two-hybrid beta-galactosidase activity, % of wild-type Cdc1 (Cdc1-J10): < 1% | two-hybrid beta-galactosidase activity, % of wild-type Cdc1 (Cdc1-A9): < 1%
B1: Pol3 (fission yeast DNA polymerase delta catalytic subunit) (natural protein, Schizosaccharomyces pombe, UniProt P30316 1-1086, looked up)
chain: MTDRSSNEGVVLNKENYPFPRRNGSIHGEITDVKRRRLSERNGYGDKKGSSSKEKTSSFEDELAEYASQLDQDEIKSSKDQQWQRPALPAINPEKDDIYFQQIDSEEFTEGSVPSIRLFGVTDNGNSILVHVVGFLPYFYVKAPVGFRPEMLERFTQDLDATCNGGVIDHCIIEMKENLYGFQGNEKSPFIKIFTTNPRILSRARNVFERGEFNFEELFPVGVGVTTFESNTQYLLRFMIDCDVVGMNWIHLPASKYQFRYQNRVSNCQIEAWINYKDLISLPAEGQWSKMAPLRIMSFDIECAGRKGVFPDPSIDPVIQIASIVTQYGDSTPFVRNVFCVDTCSQIVGTQVYEFQNQAEMLSSWSKFVRDVDPDVLIGYNICNFDIPYLLDRAKSLRIHNFPLLGRIHNFFSVAKETTFSSKAYGTRESKTTSIPGRLQLDMLQVMQRDFKLRSYSLNAVCSQFLGEQKEDVHYSIITDLQNGTADSRRRLAIYCLKDAYLPQRLMDKLMCFVNYTEMARVTGVPFNFLLARGQQIKVISQLFRKALQHDLVVPNIRVNGTDEQYEGATVIEPIKGYYDTPIATLDFSSLYPSIMQAHNLCYTTLLDSNTAELLKLKQDVDYSVTPNGDYFVKPHVRKGLLPIILADLLNARKKAKADLKKETDPFKKAVLDGRQLALKVSANSVYGFTGATNGRLPCLAISSSVTSYGRQMIEKTKDVVEKRYRIENGYSHDAVVIYGDTDSVMVKFGVKTLPEAMKLGEEAANYVSDQFPNPIKLEFEKVYFPYLLISKKRYAGLFWTRTDTYDKMDSKGIETVRRDNCPLVSYVIDTALRKMLIDQDVEGAQLFTKKVISDLLQNKIDMSQLVITKALSKTDYAAKMAHVELAERMRKRDAGSAPAIGDRVAYVIIKGAQGDQFYMRSEDPIYVLENNIPIDAKYYLENQLSKPLLRIFEPILGEKASSLLHGDHTRTISMAAPSVGGIMKFAVKVETCLGCKAPIKKGKTALCENCLNRSAELYQRQVAQVNDLEVRFARLWTQCQRCQGSMHQDVICTSRDCPIFYMRIAEHKKLQQSVDLLKRFDEMSW
notes: DNA polymerase delta catalytic subunit Pol3, S. pombe; prey plasmid named pACT-Pol3 in the results and pGAD2F-Pol3 in the methods; also called Gal4-Pol3; pACT-Pol3; source: yeast two-hybrid fusion, in S. cerevisiae CTY10-5d
